Patent US20030087315A1 (MCP HAHNEMANN UNIVERSITY, published 2003)
No end group written: not given here. *: point of attachment. Biotin = O=C1N[C@H]2[C@H](CS[C@H]2CCCCC(=O)*)N1

Key:
[1] = biological target: T1, α1(I) chain of type I collagen (mouse, UniProt P11087 168-1181, limits assumed); assay: electroblot assay, FIG. 5B
T1 construct: Denatured chain on a nitrocellulose filter; pepsin-treated collagen; also called α1 chain
Description: (§1) The α1(I) and α2(I) chains of type I collagen or CNBr fragments of the chains were separated by polyacrylamide gel electrophoresis and electroblotted onto filters. The filters were then hybridized with a biotinylated telopeptide followed by assay of the washed filter with streptavidin-horseradish peroxidase. “CNBr+” indicates α1(I) or α2(I) chains which were digested with cyanogen bromide.
(§2) Type I collagen extracted with 0.5 M acetic acid from mouse skin was digested with pepsin, and the a chains separated by gel electrophoresis in SDS. To generate CNBr peptides, gel slices containing α1(1) and α2(I) chains were placed into tubes and a chains were digested with 10 mg/ml or 200 mg/ml CNBr in 70% formic acid at room temperature overnight. The gel slices were equilibrated with 0.05 mM Tris-HCl buffer (pH 6.8) over 3 hours. Gel pieces containing CNBr peptides derived from individual collagen a chains were transferred into the wells of the second gel prepared with a 6% polyacrylamide stacking gel and 12% polyacrylamide separating gel with 0.5 M urea. After electrophoresis, the gel was electroblotted overnight at 4° C. onto a nitrocellulose filter (Millipore). […] The bands were detected by chemiluminescence (ECL; Amersham) after exposure to an X-ray film for 3 to 10 min.

[2] = biological target: T2, α2(I) chain of type I collagen (mouse, UniProt Q01149 97-1110, limits assumed); assay: filter binding assay, electroblotted chains, avidin-peroxidase
T2 construct: Denatured chain on a nitrocellulose filter; pepsin-treated collagen
Description: as §1
Type I collagen extracted with 0.5 M acetic acid from mouse skin was digested with pepsin, and the a chains separated by gel electrophoresis in SDS. To generate CNBr peptides, gel slices containing α1(1) and α2(I) chains were placed into tubes and a chains were digested with 10 mg/ml or 200 mg/ml CNBr in 70% formic acid at room temperature overnight. The gel slices were equilibrated with 0.05 mM Tris-HCl buffer (pH 6.8) over 3 hours. Gel pieces containing CNBr peptides derived from individual collagen a chains were transferred into the wells of the second gel prepared with a 6% polyacrylamide stacking gel and 12% polyacrylamide separating gel with 0.5 M urea. After electrophoresis, the gel was electroblotted overnight at 4° C. onto a nitrocellulose filter (Millipore). To study binding of telopeptides to collagen fragments, the method described by Fujisawa et al. (Fujisawa et al., 1994, Calcif. Tiss. Int. 56:140-144) was used. The filters were blocked with 1% bovine serum albumin (Sigma) and then incubated overnight with 20 ml of 5 mg/ml peptide that was substituted at the N-terminus with biotin (synthesized for us by American Peptide Company, Inc.). The filter was washed three times with Tris-buffered saline containing 0.02% Tween (TBST) and incubated 30 min with a 1:30,000 dilution of horseradish peroxidase conjugated with avidin (Sigma). The bands were detected by chemiluminescence (ECL; Amersham) after exposure to an X-ray film for 3 to 10 min.

[3] = biological target: T1, α1(I) chain of type I collagen; assay: electroblot assay, FIG. 5C
Description: as §1, §2

T2 sequence (Q01149 97-1110 limits assumed): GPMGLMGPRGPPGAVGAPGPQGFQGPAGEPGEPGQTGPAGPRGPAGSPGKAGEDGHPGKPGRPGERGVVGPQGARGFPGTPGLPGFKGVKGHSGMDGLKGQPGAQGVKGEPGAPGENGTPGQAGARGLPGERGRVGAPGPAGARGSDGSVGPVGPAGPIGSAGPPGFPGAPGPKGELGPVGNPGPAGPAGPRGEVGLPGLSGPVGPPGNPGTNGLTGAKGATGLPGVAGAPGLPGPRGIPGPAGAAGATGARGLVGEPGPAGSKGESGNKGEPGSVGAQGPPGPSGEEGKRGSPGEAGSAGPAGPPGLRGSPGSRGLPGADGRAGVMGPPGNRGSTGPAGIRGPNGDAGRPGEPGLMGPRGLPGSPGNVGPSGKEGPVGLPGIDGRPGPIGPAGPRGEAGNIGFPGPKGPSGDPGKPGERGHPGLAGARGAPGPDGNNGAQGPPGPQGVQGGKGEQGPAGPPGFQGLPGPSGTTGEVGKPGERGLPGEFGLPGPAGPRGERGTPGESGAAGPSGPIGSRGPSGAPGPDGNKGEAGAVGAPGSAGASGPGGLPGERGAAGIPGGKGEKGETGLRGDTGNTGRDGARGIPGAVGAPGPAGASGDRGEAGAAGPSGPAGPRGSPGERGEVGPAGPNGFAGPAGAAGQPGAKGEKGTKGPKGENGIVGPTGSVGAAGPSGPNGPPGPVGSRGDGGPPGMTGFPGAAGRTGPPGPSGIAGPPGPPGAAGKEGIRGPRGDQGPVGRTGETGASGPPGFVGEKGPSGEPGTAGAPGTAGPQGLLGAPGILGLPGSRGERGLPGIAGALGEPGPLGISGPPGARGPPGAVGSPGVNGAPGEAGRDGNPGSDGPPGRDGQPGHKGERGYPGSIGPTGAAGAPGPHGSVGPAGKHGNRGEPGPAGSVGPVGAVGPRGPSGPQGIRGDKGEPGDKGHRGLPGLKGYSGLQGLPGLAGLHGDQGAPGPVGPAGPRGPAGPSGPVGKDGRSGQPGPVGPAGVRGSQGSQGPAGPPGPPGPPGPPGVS
T1 sequence (P11087 168-1181 limits assumed): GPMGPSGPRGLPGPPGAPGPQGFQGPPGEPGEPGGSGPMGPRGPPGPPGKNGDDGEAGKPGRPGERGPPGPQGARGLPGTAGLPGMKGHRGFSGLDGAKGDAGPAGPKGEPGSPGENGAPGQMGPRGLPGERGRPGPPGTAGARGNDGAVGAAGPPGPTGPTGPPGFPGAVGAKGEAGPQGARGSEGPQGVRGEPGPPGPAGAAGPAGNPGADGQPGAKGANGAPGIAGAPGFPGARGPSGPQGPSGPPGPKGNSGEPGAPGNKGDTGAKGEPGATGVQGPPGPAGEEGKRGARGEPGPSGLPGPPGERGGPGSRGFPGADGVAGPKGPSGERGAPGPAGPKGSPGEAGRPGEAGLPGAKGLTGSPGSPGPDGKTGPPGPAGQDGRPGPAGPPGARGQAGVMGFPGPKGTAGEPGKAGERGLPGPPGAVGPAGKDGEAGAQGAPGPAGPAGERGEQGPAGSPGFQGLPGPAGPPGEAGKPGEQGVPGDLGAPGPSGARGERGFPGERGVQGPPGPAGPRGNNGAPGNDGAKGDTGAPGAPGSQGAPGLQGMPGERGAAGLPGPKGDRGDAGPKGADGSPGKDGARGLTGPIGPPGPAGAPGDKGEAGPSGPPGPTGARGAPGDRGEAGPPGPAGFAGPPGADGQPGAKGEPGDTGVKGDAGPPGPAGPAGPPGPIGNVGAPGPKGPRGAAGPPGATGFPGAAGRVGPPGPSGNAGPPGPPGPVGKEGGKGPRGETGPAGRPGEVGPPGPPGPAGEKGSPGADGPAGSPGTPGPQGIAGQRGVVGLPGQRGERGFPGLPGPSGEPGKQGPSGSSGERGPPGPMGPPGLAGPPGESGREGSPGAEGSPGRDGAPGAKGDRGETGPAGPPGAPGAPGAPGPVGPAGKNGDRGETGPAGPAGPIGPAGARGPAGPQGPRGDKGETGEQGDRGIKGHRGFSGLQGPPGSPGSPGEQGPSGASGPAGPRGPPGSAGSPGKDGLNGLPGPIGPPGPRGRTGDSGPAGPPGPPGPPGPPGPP

B1: biotinylated C-telopeptide of α2 chain of human type I collagen (peptide)
peptide: Biotin-GGGYDFGYDGDFYRA
notes: also called biotinylated F3
binding result [1]: binds
binding result [2]: no binding (tested: 5 mg/ml peptide (so in the source))

B2: biotinylated N-telopeptide of the α1 chain of human type I collagen (peptide)
peptide: Biotin-QLSYGYDEKSTGGISVP
notes: also called biotinylated α1 N-telopeptide
binding result [3]: binds
binding result [2]: no binding (tested: 5 mg/ml peptide (so in the source))

B3: biotinylated N-telopeptide of α2 chain of human type I collagen (peptide, UniProt P08123 80-90, looked up)
peptide: Biotin-QYDGKGVGLGP
notes: domain: N-telopeptide; also called biotinylated α2 N-telopeptide
binding result [2]: no binding (tested: 5 mg/ml peptide (so in the source))
